Data reported in US12331110B2, “Monoclonal antibodies against endotrophin and the use thereof” (THE BOARD OF REGENTS OF THE UNIVERSITY OF TEXAS SYSTEM, priority 2018, dated 2025).

How the values were obtained:
SC macrophage cells = test: SC macrophage trans-well migration towards ETP transfected MCF7 cells; assay type: cell-based, human; details: 10, 2, 0.4, 0.08 μg/mL antibody, 2 hr
Description: FIGS. 3A-D. Generation and screening of anti-human endotrophin. (FIG. 3A) MCF7 breast cancer cells (20,000 cells) were plated into a 96-well plate. Cells were then treated with 10 μm cisplatin, 10 μm cisplatin/100 ng/mL endotrophin, and 10 μm cisplatin/100 ng/mL endotrophin/10 μg/mL ETPmAb4 for 24 hr. Cell survival was measured using a CellTiter One Solution Cell Proliferation Assay. Statistical significance of the curve fit parameters was tested using the extra sum of squares F test with P<0.05 considered significant. Goodness of curve fit is described using r2. Mean±SEM, n=3. (FIG. 3B) ETP transfected MCF7 cells (100,000 cells) were plated into a 24-well plate with 500 μL media. Then 4 μL of supernatant was loaded for Western blotting. It is estimated that approximately 1 ng of ETP was loaded, compared with the standard ETP (2 ng band). The concentration yields approximately 0.052 pg secreted ETP/hr/cell. (FIG. 3C) Total RNA was extracted from MCF7, HCC1395, MDAMB231, ZR-75 and MDAMB453 cells. ETP expression was determined by qRT-PCR and normalized to GAPDH. […] Migrated cells were counted after a 2 hr incubation. In all cases, data was represented as mean±SD, and statistical significance (*** p<0.0001) was calculated using an unpaired Student's t-test.
Primary Culture of Human Cells and Transwell Assays. […] Migrated cells were then counted after 2 hr. […]

MDA-MB-231 cells = test: MDA-MB-231 tumor growth in nude mice; assay type: in vivo
Description: FIGS. 6A-D. The antibody effects on MDA-MB-231 cells in vivo. (FIG. 6A) MDA-MB-231 cells (2×10^6 cells) were implanted into nude mice. Then 2.5 mg/kg of cisplatin and 20 mg/kg of ETPmAb4 antibody (twice a week) were injected after 10-days implantation for 5-weeks. Tumor volume was determined by caliper measurement. The insert reflects a simplified analysis of control antibody versus ETPmAb4 with associated statistics. (FIG. 6B) MDA-MB-231 cells (2×10^6 cells) were implanted into nude mice. Treatment was started when the tumor volume was over 30 mm^3. At that point, 2.5 mg/kg of cisplatin and 20 mg/kg of ETPmAb4 antibody (twice weekly) were injected for 5-weeks. Tumor volumes were determined by caliper measurements. The insert reflects a simplified analysis of control antibody versus ETPmAb4 with associated statistics. (FIG. 6C) SKOV3 cells (2×10^6 cells) were implanted into nude mice. Then 2.5 mg/kg of cisplatin and 20 mg/kg of ETPmAb4 antibody (twice weekly) were injected 10-days after implantation for 5-weeks. Tumor volumes were determined by caliper measurements. The insert reflects a simplified analysis of control antibody versus ETPmAb4 with associated statistics. (FIG. 6D) MDA-MB-231 cells (2×10^6 cells) were implanted into nude mice. Then 2.5 mg/kg of cisplatin, 20 mg/kg of ETPmAb4 antibody and 20 mg/kg of humanized ETPmAb4 antibody (twice a week) were injected after 10-days implantation for 5-weeks. Tumor volume was determined by caliper measurement. […]
Animal experiments. […] Tumors were measured twice a week, beginning 10 days after injection, and tumor volume was calculated by length×(width) 2/2 (mm^3).
Analysis of Tumor Progression. Tumor onset was monitored twice weekly by palpation. Tumor sizes were measured using a digital caliper twice weekly and the volumes were calculated as length× width2)/2. […] Animals were sacrificed when the tumor burden visibly affected the host, or when the tumors reached the IACUC pre-determined limit of 20 mm along one axis. […]
After humanization, the binding affinity of hETPmAb4 to endotrophin was measured in Octet RED96. […]

B1: ETP-mAb4: rabbit monoclonal anti-human endotrophin antibody selected for further study; VH SEQ ID NO: 125, VL SEQ ID NO: 126 (antibody, V domains shown)
VH: SSRVKESGGDLVKPGASLTLTCKASGFSFSSGYYICWVRQAPGKGLEWIACIYGGNNNPYYANWVNGRFTTSKTSSTTVTLQMTNLTGADTATYFCARKDINIGGAYELWGPGTLVTISS
VL: ELVMTQTPASVSEPVGGTVTINCQASQSISSSYLSWYQQKPGQPPKLLIYKASTLASGVPSRFKGSGSGTQFSLTISDLECADAATYYCQYSDWANSYGNAFGGGTEVVVK
With B1 the “migration of SC macrophages into the bottom chamber” value (SC macrophage cells) was “effectively prevented the migration”, the “lesion growth, combination with cisplatinum” value (MDA-MB-231 cells; 20 mg/kg antibody plus 2.5 mg/kg cisplatin) was “essentially inhibited lesion growth” and the “rate of tumor growth, antibody alone” value (MDA-MB-231 cells; 20 mg/kg twice a week) was “significantly reduced the rate of tumor growth”.
